Laboratory results reported in publication doi:10.1101/659805.
Numbering of substitutions follows the chain as printed.

B1: Iqsec3 promoter WT probe (dsDNA)
DNA 1: CGGGAAGCAGGGTTCCTCACGAAGCCCAGAGGTGGGAGGTGG
DNA 2: CCACCTCCCACCTCTGGGCTTCGTGAGGAACCCTGCTTCCCG
B2: Iqsec3 promoter MT probe (dsDNA)
DNA 1: B1 DNA 1 with C18A, C20A, G21A
DNA 2: B1 DNA 2 with C22T, G23T, G25T

Target: T1, FLAG-Npas4 (Mus musculus (mouse), UniProt Q8BGD7 1-802)
T1 sequence: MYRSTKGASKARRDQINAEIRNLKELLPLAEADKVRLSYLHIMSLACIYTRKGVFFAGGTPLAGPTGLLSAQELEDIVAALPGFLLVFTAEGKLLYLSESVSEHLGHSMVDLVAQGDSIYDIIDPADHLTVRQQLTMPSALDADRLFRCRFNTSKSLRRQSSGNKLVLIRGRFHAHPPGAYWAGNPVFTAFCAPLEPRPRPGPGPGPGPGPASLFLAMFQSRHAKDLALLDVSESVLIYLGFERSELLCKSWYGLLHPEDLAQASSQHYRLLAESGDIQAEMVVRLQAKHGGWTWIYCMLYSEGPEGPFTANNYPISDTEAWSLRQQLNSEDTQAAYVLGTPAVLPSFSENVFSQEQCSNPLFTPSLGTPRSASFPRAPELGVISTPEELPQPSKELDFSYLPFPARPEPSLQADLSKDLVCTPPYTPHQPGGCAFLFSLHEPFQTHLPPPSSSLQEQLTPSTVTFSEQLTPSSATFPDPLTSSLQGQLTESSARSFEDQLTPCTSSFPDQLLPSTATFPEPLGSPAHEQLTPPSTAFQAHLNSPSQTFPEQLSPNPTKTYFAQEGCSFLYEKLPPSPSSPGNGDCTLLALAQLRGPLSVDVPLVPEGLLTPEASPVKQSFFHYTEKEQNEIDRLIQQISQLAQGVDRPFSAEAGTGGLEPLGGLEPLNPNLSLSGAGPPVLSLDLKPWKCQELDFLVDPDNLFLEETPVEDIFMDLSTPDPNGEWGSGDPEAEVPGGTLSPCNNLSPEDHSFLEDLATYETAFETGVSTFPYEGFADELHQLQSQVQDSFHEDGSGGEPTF
Assay: EMSA

Row | Binder | binding result
1 | B1 | binds
2 | B2 | no binding
